Assay results from patent publication US20240270854A1 (Stanford University, published 2024).

How the values were obtained:
[1] = target: BMPR1a on skeletal stem cells; assay: cell-based or functional assay
[2] = target: BMPR2 on skeletal stem cells; assay: cell-based or functional assay
Chain of BMPR2 on skeletal stem cells (Q13873 whole entry): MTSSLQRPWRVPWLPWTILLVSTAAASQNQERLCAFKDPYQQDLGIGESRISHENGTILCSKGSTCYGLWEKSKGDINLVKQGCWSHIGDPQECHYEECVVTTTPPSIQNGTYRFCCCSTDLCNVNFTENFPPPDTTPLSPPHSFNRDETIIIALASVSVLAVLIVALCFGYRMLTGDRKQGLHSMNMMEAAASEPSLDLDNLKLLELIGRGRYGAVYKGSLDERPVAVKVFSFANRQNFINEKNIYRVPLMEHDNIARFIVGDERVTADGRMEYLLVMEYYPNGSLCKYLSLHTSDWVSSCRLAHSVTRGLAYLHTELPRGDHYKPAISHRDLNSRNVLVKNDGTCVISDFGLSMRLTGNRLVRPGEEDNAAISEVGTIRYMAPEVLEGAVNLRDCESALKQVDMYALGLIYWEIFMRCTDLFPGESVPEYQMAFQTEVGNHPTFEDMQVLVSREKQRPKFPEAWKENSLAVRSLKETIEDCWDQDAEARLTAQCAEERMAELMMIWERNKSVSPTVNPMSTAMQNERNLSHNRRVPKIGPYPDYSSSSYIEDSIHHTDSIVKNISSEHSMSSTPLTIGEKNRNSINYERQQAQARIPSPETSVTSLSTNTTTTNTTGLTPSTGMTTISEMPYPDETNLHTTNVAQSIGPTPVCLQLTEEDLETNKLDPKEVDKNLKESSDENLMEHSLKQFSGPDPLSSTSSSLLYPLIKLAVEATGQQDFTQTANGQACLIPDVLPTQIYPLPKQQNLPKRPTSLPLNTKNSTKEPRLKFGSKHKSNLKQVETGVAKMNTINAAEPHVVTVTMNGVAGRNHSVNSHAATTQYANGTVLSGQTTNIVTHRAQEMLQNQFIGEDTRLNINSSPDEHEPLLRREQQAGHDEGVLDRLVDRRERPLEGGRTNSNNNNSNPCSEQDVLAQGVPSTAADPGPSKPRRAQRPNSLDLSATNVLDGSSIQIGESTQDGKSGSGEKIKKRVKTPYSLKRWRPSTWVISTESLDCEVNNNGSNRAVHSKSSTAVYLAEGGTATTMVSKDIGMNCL

Chain of BMPR1a on skeletal stem cells (P36894 whole entry): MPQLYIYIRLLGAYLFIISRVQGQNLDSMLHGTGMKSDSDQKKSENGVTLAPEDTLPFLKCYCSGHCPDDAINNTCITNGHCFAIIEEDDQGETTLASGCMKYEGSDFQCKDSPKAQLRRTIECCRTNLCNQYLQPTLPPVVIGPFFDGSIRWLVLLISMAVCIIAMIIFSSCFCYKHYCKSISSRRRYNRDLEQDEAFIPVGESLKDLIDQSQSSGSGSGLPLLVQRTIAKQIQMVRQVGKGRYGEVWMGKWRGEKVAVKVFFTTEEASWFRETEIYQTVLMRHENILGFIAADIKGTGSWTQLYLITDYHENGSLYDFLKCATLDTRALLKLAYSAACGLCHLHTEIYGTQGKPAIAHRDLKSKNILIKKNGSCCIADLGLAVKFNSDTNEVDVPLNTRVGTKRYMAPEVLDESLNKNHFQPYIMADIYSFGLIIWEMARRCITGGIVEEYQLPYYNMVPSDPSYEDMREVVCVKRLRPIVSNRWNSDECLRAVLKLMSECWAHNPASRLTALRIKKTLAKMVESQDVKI

B1: (NB1-4)-(NB2-43) (bispecific antibody)
chain: QVQLQESGGGLVQAGGSLRLSCAASGTIFYFSIMGWYRQAPGKEREFVAGIGVGSNTYYADSVKGRFTISRDNAKNTVYLQMNSLKPEDTAVYYCAAFDSISGELQYWGQGTQVTVSSGGGGSGGGQVQLQESGGGLVQAGGSLRLSCAASGSISSATVMGWYRQAPGKEREFVAAITAGGTTNYADSVKGRFTISRDNAKNTVYLQMNSLKPEDTAVYYCAVVVFTSQDRIYYYRYWGQGTQVTVSS
p-smad1/5 signaling in SSCs after 30 minutes treatment [1]: 3 folds higher activation than control | p-smad1/5 signaling in SSCs after 30 minutes treatment [2]: 3 folds higher activation than control
